± gives the standard deviation.
Test: protein stability index of a GFP-peptide fusion (GPS, HEK-293T) (PSI 1-6); higher = more stable
[1] = treatment: DMSO, c terminus: a fixed tail appended
[2] = treatment: MLN4924 1 uM, 8 h, c terminus: a fixed tail appended
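Further: 24-mer peptide tiles fused after GFP, lentivirally expressed, FACS-sorted into six equal bins by GFP/DsRed ratio, decoded by Illumina sequencing, PSI is the read-weighted mean bin number.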

Row | Sequence | protein stability index (treatment: DMSO, c terminus: native) | protein stability index (treatment: MLN4924 1 uM, 8 h, c terminus: native) | protein stability index [1] | protein stability index [2]
1 | VRANDINYQDQIPRTLEEFVGFH [FEM1B] | 3.21 ± 0.16 | 3.2 ± 0.48 |  | 
2 | NGHDCWSLISLSNNTGKNLELKFV [TENT5D] |  |  | 2.51 ± 0.49 | 2.61 ± 1
3 | VQSLQLSPRTRGSWSQPQPLKAPC [RASAL3] |  |  | 3.54 ± 0.41 | 3.68 ± 0.098
4 | CPTFRVSIARLEMGPDEYEEMEEE [FBXO3] |  |  | 4.7 ± 0.18 | 5.07 ± 0.21
5 | MNALLEQKEQQERLREAAALGDIR [ANKRD40] |  |  | 4.66 ± 0.24 | 4.76 ± 0.18
6 | LNLTRKLAQQLCTALLFLATPELS [DYRK1B] |  |  | 2.9 ± 0.51 | 3.21 ± 0.47
7 | AGLNKDKETEERTDGERVAEVAPE [SDE2] |  |  | 5.46 ± 0.33 | 5.63 ± 0.16
8 | CPASNECEITKRRRKACQACRFTK [ESRRA] |  |  | 3.94 ± 0.33 | 4.26 ± 0.23
9 | LYGALNPQYEFKEAAGSFTSSLAQ [IRX6] |  |  | 2.64 ± 0.17 | 2.55 ± 0.27
10 | TGGVTALCWDPVQRVLFSGSSDHS [WDFY2] |  |  | 2.73 ± 0.21 | 2.78 ± 0.59
11 | DYIMDEDQSKLAGLLDLNNAILQL [ESRRG] |  |  | 2.35 ± 0.25 | 2.6 ± 0.39
12 | NLLGEAAGGQDMADSMLMQGSRGL [HDAC6] |  |  | 4.1 ± 0.34 | 4.09 ± 0.081
13 | AEIATASASASTTTTVTAVTAEVD [SNAP91] |  |  | 5.62 ± 0.23 | 5.47 ± 0.39
14 | PSPEPAGRRAALYVHWPYCEKRCS [RSAD1] |  |  | 2.78 ± 0.26 | 3.02 ± 0.41
15 | HFHPTVIGESMYGDFEEAFDHLQN [TENT5C] |  |  | 3.82 ± 0.064 | 3.9 ± 0.37
16 | EGQRQAQEYEALLNIKVKLEAEIA [KRT18] |  |  | 3.94 ± 0.18 | 4 ± 0.43
17 | SGPQPRLPPCLLPLSPPTAPDRAT [TRIB3] |  |  | 4.48 ± 0.27 | 4.61 ± 0.28
18 | EVRYYLRQIVSGLKYLHEQEILHR [PLK2] |  |  | 3.11 ± 1 | 2.91 ± 0.58
19 | IPAFCELPLDDQVALLRAHAGEHL [HNF4A] |  |  | 2.88 ± 0.26 | 3.22 ± 0.33
20 | MSDLLSVFLHLLLLFKLVAPVTFR [CPN1] |  |  | 3.09 ± 0.26 | 3.33 ± 0.17
21 | YNVYSTFQSHEPEFDYLKSLEIEE [PPP2R2B] |  |  | 3.86 ± 0.2 | 3.92 ± 0.26
22 | EPNNIVVLLQTSPYHVDSLLQLSD [TCF25] |  |  | 2.44 ± 0.3 | 2.11 ± 0.26

Row | Sequence | protein stability index (treatment: DMSO, c terminus: native) | protein stability index (treatment: MLN4924 1 uM, 8 h, c terminus: native) | protein stability index [1] | protein stability index [2]
23 | EDAEAVEQLREALHEALLEYEAGR [ESRRA] |  |  | 4.03 ± 0.35 | 4.26 ± 0.18
24 | HEVREFKQLIYRVRRTDDTPVVLV [RIT1] |  |  | 2.2 ± 0.29 | 2.24 ± 0.16
25 | WFQRQYLSTPDSQSLRCDLIRYIC [INTS3] |  |  | 2.25 ± 0.35 | 2.28 ± 0.44
26 | ELSPPLSPASHVDVDLTIHGRHID [FOXJ1] |  |  | 4.82 ± 0.18 | 4.84 ± 0.064
27 | PVESHIQKNKKILKSAKDLPPDAL [KMT2E] |  |  | 4.86 ± 0.24 | 4.71 ± 0.44
28 | KAREKDGKGRTASPINSPARGTPS [FSD1] |  |  | 4.92 ± 0.11 | 5.19 ± 0.27
29 | DRLRDEELAELEDALRNLKCGSGA [TRADD] |  |  | 4.95 ± 0.23 | 4.95 ± 0.24
30 | FQHHAKPNCFRKDPDINMHPFFFA [FADS1] |  |  | 2.2 ± 0.43 | 2.29 ± 0.19
31 | GATPSYHWDLAELLPNQSHGNQSA [SLC22A15] |  |  | 4.06 ± 0.19 | 4.22 ± 0.33
32 | AEERRRQNLQEEKERKLECLPPEP [FAF2] |  |  | 5.71 ± 0.18 | 5.51 ± 0.42
33 | IIYPRQQLLTLRELEMIGFIENNV [TRIP13] |  |  | 2.6 ± 0.37 | 2.26 ± 0.22
34 | VLDILTRLPESVERLTGVSISQVN [FLOT1] |  |  | 2.43 ± 0.23 | 2.3 ± 0.48
35 | CFKAAFLDFKDLLESEDWEEDNWD [TEX19] |  |  | 2.95 ± 0.2 | 3.24 ± 0.36
36 | EISLEDLIERERSALGPNVTKITL [ZC3H15] |  |  | 2.77 ± 0.3 | 2.96 ± 0.48
37 | PLLPPAMGTEPAPSAPEALHSLPG [TBX6] |  |  | 5.07 ± 0.074 | 5.06 ± 0.16
38 | ELFRIGGKSPDTNYLFMGDYVDRG [PPP2CA] |  |  | 2.49 ± 0.39 | 2.48 ± 0.11
39 | NGSDPRSFPLWYEEALKDEEERAQ [MAGEA10] |  |  | 5.34 ± 0.36 | 5.42 ± 0.2
40 | GTPSPSRSRDSNSGPEEPLLEEEE [RTN2] |  |  | 5.49 ± 0.24 | 5.72 ± 0.27
41 | GKETLTPSELRDLVTQQLPHLMPS [S100A14] |  |  | 3.94 ± 0.65 | 3.99 ± 0.12
42 | VYKDGEHGEEQRITIEPGTSYRLQ [PTPRD] |  |  | 4.81 ± 0.15 | 5.03 ± 0.16
43 | EDPYMMGRIACANVLSDLYAMGIT [SEPHS2] |  |  | 2.39 ± 0.19 | 2.36 ± 0.18
44 | TSGMGFHAPKIGSNGVEMAAKFPS [SDE2] |  |  | 3.53 ± 0.28 | 3.5 ± 0.27

Row | Sequence | protein stability index (treatment: DMSO, c terminus: native) | protein stability index (treatment: MLN4924 1 uM, 8 h, c terminus: native) | protein stability index [1] | protein stability index [2]
45 | IYLSTSSSKFYDLFLMDLSEGELG [RHOBTB2] |  |  | 3.38 ± 0.65 | 2.9 ± 0.39
46 | YLTVKVWDLNMENRPIETYQVHDY [PPP2R2B] |  |  | 2.25 ± 0.032 | 2.31 ± 0.2
47 | MAKTLVFSKVKTSLGLDHCHSFIS [ACSBG2] |  |  | 2.18 ± 0.58 | 1.82 ± 0.52
48 | EHKLKVVRDQISHCTVKLRQTTGL [TRIM9] |  |  | 3.35 ± 0.13 | 3.24 ± 0.25
49 | NAININELFIEISRRIPSTDANLP [RAB22A] |  |  | 2.35 ± 0.18 | 2.18 ± 0.45
50 | YICPDYQSYFKTIEDFQQKILLTK [KRT36] |  |  | 2.33 ± 0.59 | 2.13 ± 0.28
51 | STLEESVVRICCIRSFGHFIARLQ [SMG5] |  |  | 2.29 ± 0.04 | 2.19 ± 0.37
52 | NWLGRPSKVLSLQDLCCRTIVSCT [RAB40A] |  |  | 2.74 ± 0.08 | 2.88 ± 0.44
53 | LQLGEGVEFDVLPAFDALGQLTGG [OAS1] |  |  | 2.37 ± 0.35 | 2.72 ± 0.51
54 | CSKVSELTERLKVLEAKMTMLTVI [EMID1] |  |  | 2.63 ± 0.73 | 2.46 ± 0.38
55 | RQLLRDFQSRLPYQYLHYALFKAN [P3H4] |  |  | 2.49 ± 0.29 | 2.16 ± 0.43
56 | YTFTDTFTEKLWPLFYPGIRAGRK [TRIM39] |  |  | 2.69 ± 0.84 | 2.46 ± 0.5
57 | LPDSPLRFDGLPAVLGFPGFSSGR [TRIM15] |  |  | 2.87 ± 0.39 | 3.18 ± 0.41
58 | ATGDTALTYACENGHTDVADVLLQ [ANKRD17] |  |  | 4.41 ± 0.21 | 4.56 ± 0.08
59 | QINDGMGGDGDDMEIFMEEMREIR [BEX3] |  |  | 4.81 ± 0.17 | 4.75 ± 0.28
60 | EKIHEMVKKNSAKSMGLKKKAFVW [ACSBG2] |  |  | 2.49 ± 0.2 | 2.45 ± 0.3
61 | ESEDCKLPCNPCATTNASGNSCGP [KRT34] |  |  | 5.21 ± 0.12 | 5.25 ± 0.17
62 | AGSTAGAAETRGAVEGAARTTPSR [PALM] |  |  | 5.11 ± 0.36 | 5.14 ± 0.27
63 | LKRKGKTDSPWIKPARKRRRRSRK [EHMT1] |  |  | 5.1 ± 0.17 | 5.03 ± 0.23
64 | QVQQVEVEATVKPELTAALRDIRA [PRPH] |  |  | 4.02 ± 0.31 | 4.32 ± 0.18
65 | EQIGHILVSWLPRLNAYRGYCSNQ [NET1] |  |  | 2.67 ± 0.51 | 2.65 ± 0.18
